Biological target: T1, Human recombinant DPP9 (dipeptidyl peptidase 9), His-tagged (human, UniProt Q86TI2 1-863)
T1 construct: Dipeptidyl peptidase 9, human, recombinant; Held on a Ni chip by its His tag in SPR; used in solution in the pull-down; also called purified DPP9; His-tagged DPP9; source: Sf9 cells, purified essentially as described in Pilla et al. 2012
Assay: SPR; His-tagged DPP9 immobilised on a Ni-loaded NiHC1000m chip; serial dilution of BRCA2 peptides injected; 20 mM HEPES pH 7.4, 150 mM NaCl, 50 µM EDTA, 0.005 % TWEEN-20; 20°C; equilibrium binding analysis
Conditions: both partners purified

T1 sequence (Q86TI2 whole entry): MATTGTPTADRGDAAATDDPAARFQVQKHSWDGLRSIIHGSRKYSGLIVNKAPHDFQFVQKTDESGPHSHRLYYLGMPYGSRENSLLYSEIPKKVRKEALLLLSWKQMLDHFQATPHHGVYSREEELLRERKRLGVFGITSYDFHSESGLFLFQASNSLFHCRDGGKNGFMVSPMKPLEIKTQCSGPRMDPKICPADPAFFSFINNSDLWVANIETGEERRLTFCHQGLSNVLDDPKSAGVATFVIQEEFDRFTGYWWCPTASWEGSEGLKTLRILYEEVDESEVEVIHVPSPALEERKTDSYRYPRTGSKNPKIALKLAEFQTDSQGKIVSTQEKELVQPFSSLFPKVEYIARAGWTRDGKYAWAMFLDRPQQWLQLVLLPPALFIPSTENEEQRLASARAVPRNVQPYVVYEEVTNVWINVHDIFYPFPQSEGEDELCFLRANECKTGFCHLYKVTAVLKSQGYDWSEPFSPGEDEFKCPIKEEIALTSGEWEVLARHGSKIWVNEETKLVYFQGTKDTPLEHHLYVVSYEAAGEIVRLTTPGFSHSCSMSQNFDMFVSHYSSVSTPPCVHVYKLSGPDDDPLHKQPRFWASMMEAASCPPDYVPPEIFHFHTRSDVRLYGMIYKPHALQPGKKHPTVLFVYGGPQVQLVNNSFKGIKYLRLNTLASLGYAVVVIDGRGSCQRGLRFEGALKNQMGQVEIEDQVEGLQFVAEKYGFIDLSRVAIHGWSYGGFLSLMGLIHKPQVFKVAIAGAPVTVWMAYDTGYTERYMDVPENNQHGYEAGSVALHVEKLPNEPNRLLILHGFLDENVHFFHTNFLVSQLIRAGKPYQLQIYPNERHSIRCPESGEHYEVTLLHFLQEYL

Kd	Binder
16.8 ± 0.7 µM	MPIGSKERPTFFEIFKTRCNKADLGPISLNWFEELSSEAP (peptide, UniProt P51587 1-40, looked up, BRCA2, human, residues 1-40; also called BRCA2_(1-40) N-terminal peptide; BRAC2_(1-40) peptide; source: synthetic peptide) [BRCA2_(1-40) synthetic peptide (first forty amino acids of BRCA2)]
75.3 ± 4.8 µM	IGSKERPTFFEIFKTRCNKADLGPISLNWFEELSSEAP (peptide, UniProt P51587 3-40, looked up, BRCA2, human, residues 3-40; also called truncated BRCA2_(3-40) peptide; source: synthetic peptide) [BRCA2_(3-40) synthetic peptide (truncated, lacking Met1-Pro2)]

Source: article doi:10.1101/2020.08.24.265033, “Dipeptidyl peptidase 9 triggers BRCA2 degradation by the N-degron pathway to promote DNA-damage repair” (bioRxiv, 2020)
